Results on one protein are retold here after PMC10623103, “A case of hyperlysinemia identified by urine newborn screening” (JIMD Reports, 2023).

This data set concerns the molecule itself. The data set is described as follows: SEC; Superdex200 Increase on an AKTA FPLC after IMAC; uncut His-SUMOstar-LOR; elution compared with the expected tetrameric size and the aggregation peak.

B1: 2-aminoadipic semialdehyde synthase (AASS) lysine 2-oxoglutarate reductase (LOR) domain, p.T371I variant, His-SUMOstar-LOR [residues 21-470] (domain or fragment, human, UniProt Q9UDR5 21-470, looked up)
chain: HHKAVLAVRREDVNAWERRAPLAPKHIKGITNLGYKVLIQPSNRRAIHDKDYVKAGGILQEDISEACLILGVKRPPEEKLMSRKTYAFFSHTIKAQEANMGLLDEILKQEIRLIDYEKMVDHRGVRVVAFGQWAGVAGMINILHGMGLRLLALGHHTPFMHIGMAHNYRNSSQAVQAVRDAGYEISLGLMPKSIGPLTFVFTGTGNVSKGAQAIFNELPCEYVEPHELKEVSQTGDLRKVYGTVLSRHHHLVRKTDAVYDPAEYDKHPERYISRFNTDIAPYTTCLINGIYWEQNTPRLLTRQDAQSLLAPGKFSPAGVEGCPALPHKLVAICDISADTGGSIEFMTECTIIEHPFCMYDADQHIIHDSVEGSGILMCSIDNLPAQLPIEATECFGDMLYPYVEEMILSDATQPLESQNFSPVVRDAVITSNGTLPDKYKYIQTLRESRE
notes: 2-aminoadipic semialdehyde synthase (AASS), LOR domain, residues 21-470, patient variant c.1112C>T (p.T371I); Purified as uncut SUMOstar-LOR; calculated MW of the His-SUMOstar-LOR monomer is 62.4 kD; PDB 8E8U is the wild-type LOR structure (cited); also called I371 variant; LOR variant; source: E. coli LOBSTR cells, purified (IMAC, size-exclusion chromatography on Superdex200 Increase); not …
For B1, the binding result is recorded as “binds”.
